B1: RIPK4 (parent)
chain: AAWQGHLPIVKLLAKQPGVSVNAQ
B2: ESRRG (parent)
chain: YSCPATNECEITKRRRKSCQACRF

Variants of: B1
Assay: protein stability index of a GFP-peptide fusion (GPS, HEK-293T) (PSI 1-6); higher = more stable
Details: c terminus: a fixed tail appended
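Further: lentivirally expressed fusions sorted by FACS into six bins by GFP to DsRed ratio, PSI derived from sequencing read proportions per bin multiplied by bin number.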

| Variant | protein stability index |
| --- | --- |
| AAWQGHLPIVKLLAKQPQVSVNAQ [G18Q] | 2.53 |
| AAWQGHLPIVKELAKQPGVSVNAQ [L12E] | 4.1 |
| AAWQGHLPIVKLLAKQPGVSVFAQ [N22F] | 1.55 |
| AAWQGHLPIVKLLRKQPGVSVNAQ [A14R] | 2.5 |
| AAWQGHLPYVKLLAKQPGVSVNAQ [I9Y] | 2.45 |
| AAWQGHLPIVKLLAKQPNVSVNAQ [G18N] | 2.07 |
| AAWQGHLPIVKLLAKRPGVSVNAQ [Q16R] | 2.26 |
| AAWQGHLPIVCLLAKQPGVSVNAQ [K11C] | 3.38 |
| AAWQGHLNIVKLLAKQPGVSVNAQ [P8N] | 1.78 |
| AAWQGHLPIVKLLYKQPGVSVNAQ [A14Y] | 2.09 |
| AAWQGHLPIVKLLAKQPGVSMNAQ [V21M] | 1.95 |
| AAWQGHLPIVKLLAKQPGVSANAQ [V21A] | 2.62 |
| AARQGHLPIVKLLAKQPGVSVNAQ [W3R] | 2.98 |
| AAWQGVLPIVKLLAKQPGVSVNAQ [H6V] | 4 |
| AAWQGHLPIVKLLFKQPGVSVNAQ [A14F] | 1.57 |
| AAWQGHLPIVKLLAKQEGVSVNAQ [P17E] | 3.58 |
| AAWQGHLPIVKLLAKQLGVSVNAQ [P17L] | 2.58 |
| AAWQGHLPIVILLAKQPGVSVNAQ [K11I] | 1.4 |
| AAWQGHLPITKLLAKQPGVSVNAQ [V10T] | 2.78 |
| AAWQGHLPPVKLLAKQPGVSVNAQ [I9P] | 3.45 |
| AAWQGTLPIVKLLAKQPGVSVNAQ [H6T] | 2.32 |
| AAWQGHLPIVKLLAKQPGVSVIAQ [N22I] | 2.22 |
| AAWQGHLPIVKLLAKQPGGSVNAQ [V19G] | 1.85 |
| AAWQGHPPIVKLLAKQPGVSVNAQ [L7P] | 3.21 |
| AAWQGHLPIVKLLAKHPGVSVNAQ [Q16H] | 2.97 |
| AAWQGHLPIVKLLAKQTGVSVNAQ [P17T] | 1.83 |

| Variant | protein stability index |
| --- | --- |
| AAWQGHLPIVKLLAKQPGVSVNVQ [A23V] | 2.19 |
| ASWQGHLPIVKLLAKQPGVSVNAQ [A2S] | 2.25 |
| AAWQGHLPIVKLLQKQPGVSVNAQ [A14Q] | 2.14 |
| AAWQGHLPIVKLLAKQPGVHVNAQ [S20H] | 1.97 |
| AAWQGHLPIVKLLAKQPGVSVNMQ [A23M] | 1.74 |
| AAWQGHLPIVKLLAKQPGNSVNAQ [V19N] | 2.61 |
| AAWQGHLPIVKLLAKPPGVSVNAQ [Q16P] | 2.27 |
| AAWQGHLPIVKLLAKQPGVSVNAC [Q24C] | 2.19 |
| CAWQGHLPIVKLLAKQPGVSVNAQ [A1C] | 2.18 |
| AAWQGHLPIVKILAKQPGVSVNAQ [L12I] | 2.4 |
| AADQGHLPIVKLLAKQPGVSVNAQ [W3D] | 3.85 |
| AAWQGHLPIVKRLAKQPGVSVNAQ [L12R] | 3.56 |
| AAWQGHLPWVKLLAKQPGVSVNAQ [I9W] | 2.63 |
| AAWQGHLPIVKLLAKQPGVSVNAK [Q24K] | 2.78 |
| KAWQGHLPIVKLLAKQPGVSVNAQ [A1K] | 2.25 |
| AAWQGHLPIVKLLAKYPGVSVNAQ [Q16Y] | 1.97 |
| ADWQGHLPIVKLLAKQPGVSVNAQ [A2D] | 3.76 |
| AAWWGHLPIVKLLAKQPGVSVNAQ [Q4W] | 1.61 |
| AAWQGHLPIVKLLAKQPGVSVCAQ [N22C] | 1.89 |
| AAWQGHLPIVKLLAKQPGVSVNKQ [A23K] | 2.6 |
| AAWQGHEPIVKLLAKQPGVSVNAQ [L7E] | 3.31 |
| AAWQGHLPIVKLLAKQPKVSVNAQ [G18K] | 2.46 |
| AAWQGHLPIVKLLAKQPGVSHNAQ [V21H] | 2.45 |
| AAWQGHLPVVKLLAKQPGVSVNAQ [I9V] | 2.64 |
| AAWVGHLPIVKLLAKQPGVSVNAQ [Q4V] | 1.7 |
| AAWQGHLPIVKLLDKQPGVSVNAQ [A14D] | 3.75 |

Variants of: B2
Assay: as above
Details: c terminus: a fixed tail appended

| Variant | protein stability index |
| --- | --- |
| YSCPATNKCEITKRRRKSCQACRF [E8K] | 3.14 |
| YSCPATHECEITKRRRKSCQACRF [N7H] | 3.88 |
| YSCPATNECEITKRHRKSCQACRF [R15H] | 4.16 |
| HSCPATNECEITKRRRKSCQACRF [Y1H] | 3.8 |
| YICPATNECEITKRRRKSCQACRF [S2I] | 1.92 |
| YSCTATNECEITKRRRKSCQACRF [P4T] | 3.21 |
| YSCPATNECEITKRRRKSCQACRK [F24K] | 4.41 |
| YSCPAWNECEITKRRRKSCQACRF [T6W] | 2.26 |
| YSCPATNECEITKRRRKSCQGCRF [A21G] | 3.44 |
| YSCPATNECEITKRRRKSTQACRF [C19T] | 3.85 |
| YSCPVTNECEITKRRRKSCQACRF [A5V] | 3.03 |
| YSCCATNECEITKRRRKSCQACRF [P4C] | 2.92 |
| YSCPATNECEITKRRLKSCQACRF [R16L] | 2.92 |
| YSCPYTNECEITKRRRKSCQACRF [A5Y] | 3.05 |
| YSCPATFECEITKRRRKSCQACRF [N7F] | 2.52 |
| YSCPATNECEITKRRRKSCQICRF [A21I] | 2.54 |
| YCCPATNECEITKRRRKSCQACRF [S2C] | 2.52 |
| YSCPCTNECEITKRRRKSCQACRF [A5C] | 3.43 |
| YHCPATNECEITKRRRKSCQACRF [S2H] | 2.47 |
| YSCPATNECEITKRRRKSCQACQF [R23Q] | 3.69 |
| YSCLATNECEITKRRRKSCQACRF [P4L] | 2.64 |

| Variant | protein stability index |
| --- | --- |
| YSCPATNYCEITKRRRKSCQACRF [E8Y] | 2.32 |
| YSCPATNECEDTKRRRKSCQACRF [I11D] | 3.41 |
| YSIPATNECEITKRRRKSCQACRF [C3I] | 3.37 |
| YSCPATNECEITKRRRKSRQACRF [C19R] | 3.72 |
| YSCPATNECEITKRRRKSEQACRF [C19E] | 3.84 |
| YSCPFTNECEITKRRRKSCQACRF [A5F] | 2.79 |
| YSCPATNECEITKTRRKSCQACRF [R14T] | 3.42 |
| YSCPATNECEITKRRRRSCQACRF [K17R] | 3.31 |
| YSCPATNECEITKRRRVSCQACRF [K17V] | 2.97 |
| YSCPATNECEITKRRRKSCQACRS [F24S] | 3.89 |
| YSCPATNECEITKRPRKSCQACRF [R15P] | 3.28 |
| YSCPATNECEITKRRRKSCPACRF [Q20P] | 3.39 |
| YSCPATVECEITKRRRKSCQACRF [N7V] | 3.14 |
| YSCPATNECECTKRRRKSCQACRF [I11C] | 3.83 |
| YSCPATNECEITKRDRKSCQACRF [R15D] | 4.01 |
| YSCPATNECEITKRRRFSCQACRF [K17F] | 2.69 |
| YSCPATNECEITRRRRKSCQACRF [K13R] | 3.64 |
| YSCPAYNECEITKRRRKSCQACRF [T6Y] | 2.29 |
| YSCPATNECEITKRRRKSCQACPF [R23P] | 3.7 |
| YSCPATNECEITKRRRKSCQFCRF [A21F] | 2.94 |
| YSCPATNECEITKRRRKSCQAFRF [C22F] | 2.81 |
